In article PMC8751089, “Photobiocatalytic Oxyfunctionalization with High Reaction Rate using a Baeyer–Villiger Monooxygenase from Burkholderia xenovorans in Metabolically Engineered Cyanobacteria” (ACS Catalysis, 2021):

How the values were obtained:
[1] = system: T1, BVMOXeno; assay: steady-state kinetics, NADPH consumption; assay type: biochemical, Paraburkholderia xenovorans; settings: co-substrates NADPH and O2; 50 mM Tris-HCl, pH 8, 25 °C
T1 construct: gene BVMO_Xeno; purified enzyme, recombinant (E. coli); tag details only in supplement
Text: steady-state kinetics, NADPH consumption on BVMOXeno

[2] = system: O=C1CCCCC1; assay: purified protein; settings: co-substrates NADPH and O2, 50 mM Tris-HCl, pH 8, 25 °C

Work on O=C1CCCCC1 [1a, cyclohexanone] yielded a Km [1] of 22.7 ± 5 µM.

For CHMOAcineto (Acinetobacter johnsonii), the Km [2] was 266.6 ± 25.5 µM, the kcat [2] was 4.54 ± 0.095 s⁻¹ and the kcat/Km [2] was 17000 ± 1670 M⁻¹ s⁻¹.
